In US20210238276A1 (INTEGRAL MOLECULAR, published 2021):

T1: hsGLUT4 E345A (human, UniProt P14672 1-509)
T1 sequence: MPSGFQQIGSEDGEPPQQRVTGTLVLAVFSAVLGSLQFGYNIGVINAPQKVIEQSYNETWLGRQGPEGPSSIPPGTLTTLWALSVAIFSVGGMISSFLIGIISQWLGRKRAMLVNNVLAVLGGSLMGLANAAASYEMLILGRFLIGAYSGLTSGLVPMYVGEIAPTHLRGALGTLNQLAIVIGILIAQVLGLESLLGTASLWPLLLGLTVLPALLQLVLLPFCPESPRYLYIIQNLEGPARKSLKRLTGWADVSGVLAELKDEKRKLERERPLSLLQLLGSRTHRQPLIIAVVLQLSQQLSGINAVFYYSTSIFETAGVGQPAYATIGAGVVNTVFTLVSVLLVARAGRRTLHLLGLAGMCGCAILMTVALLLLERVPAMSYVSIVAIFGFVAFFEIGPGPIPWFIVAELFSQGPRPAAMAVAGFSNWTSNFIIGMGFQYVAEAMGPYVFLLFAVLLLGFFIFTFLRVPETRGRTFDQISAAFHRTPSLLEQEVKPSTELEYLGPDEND

T2: hsGLUT4 G504A (human, UniProt P14672 1-509)
T2 sequence: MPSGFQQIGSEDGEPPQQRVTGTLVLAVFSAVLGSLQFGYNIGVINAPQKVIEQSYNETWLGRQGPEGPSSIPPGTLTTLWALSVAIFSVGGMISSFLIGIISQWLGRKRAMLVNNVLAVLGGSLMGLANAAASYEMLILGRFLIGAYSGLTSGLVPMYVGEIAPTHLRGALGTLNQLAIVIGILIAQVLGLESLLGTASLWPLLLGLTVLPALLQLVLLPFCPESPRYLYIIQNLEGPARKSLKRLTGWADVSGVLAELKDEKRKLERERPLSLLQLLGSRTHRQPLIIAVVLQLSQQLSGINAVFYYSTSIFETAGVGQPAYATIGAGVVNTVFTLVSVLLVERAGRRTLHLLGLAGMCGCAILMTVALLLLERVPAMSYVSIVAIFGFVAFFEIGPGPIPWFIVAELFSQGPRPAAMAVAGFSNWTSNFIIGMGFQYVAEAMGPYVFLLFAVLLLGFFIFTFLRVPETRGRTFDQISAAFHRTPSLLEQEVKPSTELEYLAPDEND

T3: hsGLUT4 P66A (human, UniProt P14672 1-509)
T3 sequence: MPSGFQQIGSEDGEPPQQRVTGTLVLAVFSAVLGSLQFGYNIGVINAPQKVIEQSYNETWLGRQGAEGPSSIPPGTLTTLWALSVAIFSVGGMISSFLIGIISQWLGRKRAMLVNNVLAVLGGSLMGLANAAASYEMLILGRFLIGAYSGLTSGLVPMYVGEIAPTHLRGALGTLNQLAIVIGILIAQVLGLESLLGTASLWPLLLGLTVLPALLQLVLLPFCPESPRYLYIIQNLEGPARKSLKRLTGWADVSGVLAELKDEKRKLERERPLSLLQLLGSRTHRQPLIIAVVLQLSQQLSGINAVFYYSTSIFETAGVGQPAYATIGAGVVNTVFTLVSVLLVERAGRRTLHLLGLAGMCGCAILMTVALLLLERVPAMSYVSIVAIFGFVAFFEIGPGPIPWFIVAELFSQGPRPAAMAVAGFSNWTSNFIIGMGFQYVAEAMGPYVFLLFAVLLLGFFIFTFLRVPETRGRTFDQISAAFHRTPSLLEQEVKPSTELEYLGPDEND

T4: hsGLUT4 M158A (human, UniProt P14672 1-509)
T4 sequence: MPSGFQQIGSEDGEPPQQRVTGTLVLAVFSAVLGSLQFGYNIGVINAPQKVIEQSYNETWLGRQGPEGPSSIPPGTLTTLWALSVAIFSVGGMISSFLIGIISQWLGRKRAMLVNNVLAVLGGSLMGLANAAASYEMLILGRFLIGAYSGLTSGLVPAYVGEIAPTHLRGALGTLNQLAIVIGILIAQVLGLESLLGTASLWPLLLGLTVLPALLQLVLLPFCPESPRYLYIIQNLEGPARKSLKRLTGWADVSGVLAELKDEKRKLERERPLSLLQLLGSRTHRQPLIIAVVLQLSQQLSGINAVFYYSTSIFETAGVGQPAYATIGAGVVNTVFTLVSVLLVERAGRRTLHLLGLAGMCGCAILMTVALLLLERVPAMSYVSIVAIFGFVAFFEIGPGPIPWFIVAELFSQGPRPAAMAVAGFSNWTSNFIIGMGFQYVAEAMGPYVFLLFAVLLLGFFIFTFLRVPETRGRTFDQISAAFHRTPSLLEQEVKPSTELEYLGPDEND


Legend:
Experiment in all cases: flow cytometry, alanine-scan library in HEK-293T
hsGLUT4 E345A = molecular target: T1, hsGLUT4 E345A
Outline: (§1)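 HEK-293T cells expressing individual GLUT4 alanine mutants were stained 48 h post-transfection with anti-GLUT4 scFv MAbs (2 μg/ml), then biotinylated secondary and streptavidin-PerCP, and read by high-throughput flow cytometry. Where used, cytochalasin B (10 uM final) was given for 30 min before and during primary antibody staining.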

hsGLUT4 G504A = molecular target: T2, hsGLUT4 G504A
Outline: as §1

hsGLUT4 P66A = molecular target: T3, hsGLUT4 P66A
Outline: as §1

hsGLUT4 M158A = molecular target: T4, hsGLUT4 M158A
Outline: as §1

| Molecule | % of binding to wild type GLUT4 (hsGLUT4 E345A) [%] | % of binding to wild type GLUT4 (hsGLUT4 G504A) [%] | % of binding to wild type GLUT4 (hsGLUT4 P66A) [%] | % of binding to wild type GLUT4 (hsGLUT4 M158A) [%] |
| --- | --- | --- | --- | --- |
| 1F8 (antibody) | 93 | 120 | 78 | 95 |
| AB111 (Fc fusion, Bivalent scFv-Fc; also called MAb AB111; not shown: Fc fragment of human IgG1, cloned in frame with the scFv) scFv: ALTQPSSVSANPGETVKITCSGSGSWYGWFQQKSPGSAPVTVIYSNDKRPSDIPSRFSGSKSGSTSTLTITGVQVEDEAVYYCGNWDIFGAGTTLTVLGQSSRSSGGGGSSGGGGSAVTLDESGGGLQTPGGALSLVCKASGFTFSSHGMGWVRQAPGKGLEWVASISTGRYTFYAPAVKGRATISRDNGQSTVRLQLNNLRAEDTATYYCTKCAGLNGCGGGEIDAWGHGTEVIVSS | 200 | 172 | 90 | 107 |
| AB108 (Fc fusion, Bivalent scFv-Fc; also called MAb AB108; not shown: Fc fragment of human IgG1, cloned in frame with the scFv) scFv: ALTQPSSVSANLGGTVKITCSGSSGSYGWYQQKAPGSAPVTLIYRNDKRPSDIPSRFSGSESGSTGTLTITGVQAEDEAVYFCGGYDSSAGYAAFGAGTTLTVLGQSSRSSGGGGSSGGGGSAVTLDESGGGLQTPGGALSLVCKASGFTFSSHGMGWVRQAPGKGLEWVGSISTGRYTFYAPAVKGRATISRDNGQSTLRLQLNNLRAEDTGTYYCTKCAGLNGCGGGEIDAWGHGTEVIVSS | 88 | 141 | 11 | 110 |
| AB101 (scFv, Chicken-derived clone used as a control; the four lead clones were tested as scFv-human IgG1 Fc; also called MAb AB101) scFv: ALTQPSSVSANPGETVKITCSGSSNSYGWYQQKSPGSAPVTVIYYNDKRPSDIPSRFSGSKSDSTHTLTITGVRAEDEAVYFCGSYDSTYVGIFGAGTTLTVLGQSSRSSGGGGSSGGGGSAVTLDESGGGLQTPGGTLSLVCKASGFTFSSNAMGWVRQAPGKGLEWVAGISSDGRYTKYGSAVKGRATISRDNGQSTVRLQLNNLRAEDTGTYFCAKAFGNNYRRIYAGQIDAWGHGTEVIVSS | 78 | 8 | 91 | 126 |
